Assay results taken from patent publication US20250289906A1, “MODULATION OF EXTRACELLULAR KINASE ACTIVITY AND FUNCTION FOR TREATMENT OF PAIN AND NEURODEGENERATIVE/NEUROIMMUNE DISEASE” (BOARD OF REGENTS, THE UNIVERSITY OF TEXAS SYSTEM, priority 2024, published 2025).

T1: EphB2 extracellular domain (Homo sapiens, UniProt P29323)
T1 construct: purified recombinant protein fragment with EphB2 extracellular domain (EphB2 (200 ng), active; Millipore); purchased Millipore
T1 sequence (P29323 19-543 limits assumed): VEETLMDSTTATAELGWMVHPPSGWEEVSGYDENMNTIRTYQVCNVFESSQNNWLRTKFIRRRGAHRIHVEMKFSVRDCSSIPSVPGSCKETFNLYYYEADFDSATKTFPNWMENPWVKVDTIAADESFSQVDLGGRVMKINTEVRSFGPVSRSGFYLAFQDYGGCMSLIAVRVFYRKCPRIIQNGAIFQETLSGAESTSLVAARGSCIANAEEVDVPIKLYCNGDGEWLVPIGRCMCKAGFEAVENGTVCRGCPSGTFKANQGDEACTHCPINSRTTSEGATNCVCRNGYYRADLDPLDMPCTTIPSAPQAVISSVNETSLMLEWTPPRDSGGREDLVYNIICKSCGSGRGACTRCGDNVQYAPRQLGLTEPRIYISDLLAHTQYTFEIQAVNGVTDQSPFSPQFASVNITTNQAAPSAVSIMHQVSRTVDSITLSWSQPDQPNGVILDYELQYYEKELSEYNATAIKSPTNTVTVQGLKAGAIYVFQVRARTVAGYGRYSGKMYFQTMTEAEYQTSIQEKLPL

T2: EphB2-NMDAR interaction (Homo sapiens, UniProt P29323)
T2 sequence (P29323 19-1055): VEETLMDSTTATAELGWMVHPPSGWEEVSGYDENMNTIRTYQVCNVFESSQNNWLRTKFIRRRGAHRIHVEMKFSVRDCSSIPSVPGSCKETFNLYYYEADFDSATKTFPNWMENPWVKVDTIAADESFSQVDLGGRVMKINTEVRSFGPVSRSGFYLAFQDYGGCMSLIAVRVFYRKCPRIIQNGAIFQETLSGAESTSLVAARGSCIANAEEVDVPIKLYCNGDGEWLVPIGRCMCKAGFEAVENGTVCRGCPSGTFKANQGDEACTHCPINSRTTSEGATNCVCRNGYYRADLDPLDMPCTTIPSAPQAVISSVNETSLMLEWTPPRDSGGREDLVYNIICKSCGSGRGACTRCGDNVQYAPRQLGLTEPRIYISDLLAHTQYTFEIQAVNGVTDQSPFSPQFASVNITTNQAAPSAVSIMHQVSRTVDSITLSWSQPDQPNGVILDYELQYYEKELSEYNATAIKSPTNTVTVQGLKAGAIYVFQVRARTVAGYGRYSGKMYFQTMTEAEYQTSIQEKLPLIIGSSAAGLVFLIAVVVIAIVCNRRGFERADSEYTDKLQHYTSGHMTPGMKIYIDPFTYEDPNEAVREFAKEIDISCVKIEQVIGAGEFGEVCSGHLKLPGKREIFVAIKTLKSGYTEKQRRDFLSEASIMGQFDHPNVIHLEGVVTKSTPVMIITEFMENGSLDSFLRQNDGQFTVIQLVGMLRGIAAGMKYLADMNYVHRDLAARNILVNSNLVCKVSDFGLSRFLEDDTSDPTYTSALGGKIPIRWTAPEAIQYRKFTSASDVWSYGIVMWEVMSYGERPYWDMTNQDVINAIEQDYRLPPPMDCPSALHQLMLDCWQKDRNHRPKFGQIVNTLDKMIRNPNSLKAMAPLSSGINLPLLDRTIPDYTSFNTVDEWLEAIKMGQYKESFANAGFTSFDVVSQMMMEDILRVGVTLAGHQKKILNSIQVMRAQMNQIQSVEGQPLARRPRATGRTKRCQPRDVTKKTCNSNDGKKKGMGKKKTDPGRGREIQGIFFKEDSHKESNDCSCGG

B1: VLK: active recombinant Vertebrate Lonesome Kinase (VLK/PKDCC), GST-tagged, purified from BL21 cells (protein)
chain: PRPGQSPEPSPAPGPGRRGGRGELARQIRARYEEVQRYSRGGPGPGAGRPERRRLMDLAPGGPGLPRPRPPWARPLSDGAPGWPPAPGPGSPGPGPRLGCAALRNVSGAQYMGSGYTKAVYRVRLPGGAAVALKAVDFSGHDLGSCVREFGVRRGCYRLAAHKLLKEMVLLERLRHPNVLQLYGYCYQDSEDIPDTLTTITELGAPVEMIQLLQTSWEDRFRICLSLGRLLHHLAHSPLGSVTLLDFRPRQFVLVDGELKVTDLDDARVEETPCAGSTDCILEFPARNFTLPCSAQGWCEGMNEKRNLYNAYRFFFTYLLPHSAPPSLRPLLDSIVNATGELAWGVDETLAQLEKVLHLYRSGQYLQNSTASSSTEYQCIPDSTIPQEDYRCWPSYHHGSCLLSVFNLAEAVDVCESHAQCRAFVVTNQTTWTGRQLVFFKTGWSQVVPDPNKTTYVKASG

Tests used:
neuronal cFos expression = test: cFos/NeuN staining of lumbar spinal cord dorsal horn after intrathecal administration; type: in vivo, mouse
Protocol: cFos and NeuN staining of free-floating tissue sections. Adult mice were euthanized by isoflurane inhalation. Lumbar spinal cords were dissected and drop fixed in 10% formalin for 2 hours, cryoprotected, embedded in OCT (Fisher #1437365) and frozen on dry ice. Tissues were cryostat sectioned at […]. Tissues were blocked in 0.1M Phosphate buffer with 10% Normal Goat Serum and 0.3% Triton-X and incubated in cFos and NeuN primary antibodies for 48 hours at 4° C. Secondary antibodies were incubated for 2 hours at room temperature. Sections were slide mounted and cover slipped with Prolong Gold Antifade. Images were taken on an Olympus Fluoview FV1000 confocal microscope at 20× magnification. cFos^+ cell counts were carried out using Imaris software.
(§1) Intrathecal injections were performed as previously described under isoflurane anesthesia (6). Drugs were administered in a 5 μL volume with a Hamilton syringe. Drugs were diluted in sterile saline. Heat denaturation was done by heating proteins at 70° C. for 30 mins. VLK, KD-VLK, DIA1, FAM69c and denatured controls were administered at concentrations of 0.1 mg/mL PAP was administered at 250 mU (12). APV was administered at 0.2 mg/mL.

mice [1] = test: Intrathecal administration, von Frey mechanical withdrawal thresholds; type: in vivo, mouse
Protocol: Behavior. Mechanical Withdrawal Thresholds were determined using von Frey Filament testing, following the method of (48). Animals were habituated to plexiglass chambers (11.4×7.6×7.6 cm) suspended on wire mesh racks. Baseline withdrawal thresholds were measured before experimental treatments, and subsequent testing was done at various timepoints indicated in each figure. Mechanical sensitivity was determined by applying von Frey filaments to the plantar aspect of the hind paws, and a response was indicated by flicking or withdrawal of the paw. For mice subjected to hindpaw incision surgeries, filaments were instead applied to the heel of the hindpaw near the site of injury but avoiding scar tissue.
as §1

mice [2] = test: Intrathecal administration, Mouse Grimace Scale scoring; type: in vivo
Protocol: Mouse grimace scoring was conducted using the Mouse Grimace Scale (MGS) described by (49). After acclimating to the suspended plexiglass chambers for an hour, mice were scored according to the MGS by blinded experimenters at baseline and post treatment time points which are indicated in each figure. The grimace scores were averaged by group at each time point and plotted respectively.
as §1

[3] = target: T1, EphB2 extracellular domain; test: In vitro cell-free kinase assay; type: biochemical; conditions: 100 ng kinase, 200 ng EphB2 ectodomain, ATP, 37° C., 30 min
Protocol: In vitro Kinase assay. For the in vitro kinase assay purified recombinant protein fragment with EphB2 extracellular domain (EphB2 (200 ng), active; Millipore) and active VLK (100 ng), VLK-KD (100 ng), Fam69C (100 ng), DIA1 (100 ng) was used. The kinase reaction was started by adding 10 mM MnCl2, 10 mM MgAc, and 100 μM ATP in ACSF buffer. After 30 min of incubation at 37° C., phosphorylated proteins were separated by SDS-PAGE and analyzed by western blotting with anti-phosphotyrosine antibody (PY99) and EphB2. This protocol was also previously described (6)

EphB2-NMDAR interaction = target: T2, EphB2-NMDAR interaction; test: Proximity ligation assay (PLA) of EphB2-NMDAR in transfected HEK293T cells; type: cell-based; conditions: non-permeabilized HEK293T cells, 100 ng recombinant protein, 45 minutes
Protocol: Recombinant protein—HEK293T cells were treated with 100 ng recombinant VLK, Fam69C, or DIA1. Synaptosomes were treated with 100 ng recombinant VLK. 1 mM ATP (Cat #A9187; Sigma) was applied as indicated. Recombinant PAP treatment was applied at 100 ng.
Proximity Ligation Assay (PLA). As previously described, PLA experiments on HEK293T cells, mouse brain, and human spinal cord synaptosomes were performed (4). Synaptosome PLA combined with vGlut1 immunostaining was also previously described (4).

[4] = system: endogenous EphB2-NMDAR interaction; test: EphB2/GluN1 co-immunoprecipitation in untransfected cultured cortical neurons; type: cell-based; conditions: untransfected rat cortical neurons, 45 min
Protocol: Primary neuronal culture and transfection. Primary neuronal cultures were derived from embryonic day 17-18 (E17-18) rat cerebral cortex and maintained as described previously (4, 6). 8×10^6 neurons were plated for 10 cm dishes and 1×10^6 neurons were plated per well of 6 well dishes for biochemical assays. 2×10^5 neurons were plated on glass bottom dishes for live cell imaging experiments. As previously described, neuronal cultures were transfected using Lipofectamine 2000 (4, 6).
Western Blotting, Immunoprecipitation (IP) and Co-IP. HEK293T cells and cultured neurons were lysed in RIPA buffer to generate protein lysates. Cortices of postnatal day 35 (P35) transgenic mice Pkdcc^flox/flox CaMKII^Cre/+ and its WT littermate controls were also lysed using RIPA buffer and an equal amount of protein was used to perform IP. Pooled dorsal horns from Pkdcc^flox/flox Pirt^Cre/+ uninjured mice and their WTlittermate controls were lysed in RIPA. Following lysis, an additional Percoll gradient spin was carried out to remove myelin and unwanted cellular debris (37) and an equal amount of protein was used to perform IP. For conditioned ACSF IP, ACSF was filtered through a […] syringe filter (Millipore, cat #SLGV004SL) and incubated with antibody for 2 h at 4° C. followed by addition of Protein-G beads and incubation overnight at 4° C. […]

[5] = agent given intrathecally before or together with VLK
[6] = intrathecal, 0.1 mg/mL in 5 μL, kinase given alone

| Molecule | VLK-induced neuronal cFos expression (neuronal cFos expression; VLK+AP5 intrathecal) | VLK-induced mechanical sensitivity (mice [1]; [5]) | VLK-induced grimacing (mice [2]; [5]) | neuronal cFos expression (cFos+ cells) (neuronal cFos expression; intrathecal VLK alone) | tyrosine phosphorylation of EphB2 ectodomain [3] | EphB2-NMDAR interaction on the cell surface (PLA) (EphB2-NMDAR interaction; listed as rVLK) | EphB2-NMDAR interaction on the cell surface (PLA) (EphB2-NMDAR interaction; listed as recombinant VLK) | endogenous EphB2-NMDAR interaction (co-IP GluN1 with EphB2) [4] | mechanical thresholds (von Frey) (mice [1]; [6]) | grimacing (grimace scores, affective pain) (mice [2]; [6]) |
| --- | --- | --- | --- | --- | --- | --- | --- | --- | --- | --- |
| NC(CCCP(=O)(O)O)C(=O)O (stereo not shown) [AP5, reference compound] | blocked | blocked the VLK-induced pain phenotype | blocked the VLK-induced pain phenotype | – | – | – | – | – | – | – |
| B1 | – | – | – | significant increase in neuronal cFos expression | unique capacity to phosphorylate the EphB2 ectodomain | induces the EphB2-NMDAR interaction on the cell surface | induced the EphB2-NMDAR interaction on the cell surface | induces the endogenous EphB2-NMDAR interaction | sharp drop in mechanical thresholds | increased grimacing |
